For orientation: Kd means the equilibrium constant for the complex coming apart. As usually defined, the koff is a measure of how fast the partners let go of each other. By kon is commonly meant the second-order rate constant of association.

Changes are numbered by the printed parent chain.

Experiment [1] deals with T1, Human TfR apical domain (human, UniProt P02786 198-378).
T1 construct: also called apical hTfR; human apical hTfR
In words: SPR (Biacore T200 or 8K), captured via anti-human Fab, recombinant TfR apical domain as analyte, steady-state affinity. The method, then: (§1) Affinities of mAbs and TfR-binding Fc polypeptides were measured by SPR using a Biacore T200 or a Biacore 8K. Biacore™ Series S CM5 sensor chips were immobilized with monoclonal mouse anti-human IgG (Fc) antibody for HER2 affinity measurements or mouse anti-human Fab for TfR affinity measurements (human antibody or Fab capture kit from GE Healthcare). Serial 3-fold dilutions of analyte (recombinant HER2 extracellular domain or recombinant TfR apical domain) were injected at a flow rate of 30 μL/min. Each sample was analyzed using a 3-minute association and a 10-minute dissociation. After each injection, the chip was regenerated using 3 M MgCl₂. Binding response was corrected by subtracting the RU from a flow cell capturing an irrelevant IgG at similar density. A 1:1 Languir model of simultaneous fitting of kₒₙ and koff was used for kinetics analysis.

For experiment [2], the target named is T2, HER2 extracellular domain (human, UniProt P04626 23-652).
T2 construct: extracellular domain; also called HER2 ECD; HER2-ECD
Kind of experiment: SPR (Biacore T200 or 8K), captured via anti-human IgG (Fc), recombinant HER2 extracellular domain as analyte, 1:1 kinetic fit. The method, then: as §1
For orientation: SPR reads the build-up and loss of mass on a sensor chip optically.

The target in experiment [3] is T1, Human TfR apical domain. In words: SPR (Biacore), antibody captured via anti-human Fab, recombinant TfR apical domain as analyte; the table footnote says NB = no binding. The method, then:
as §1

Experiment [4] deals with T1, Human TfR apical domain. In words: SPR (Biacore), apical hTfR.
Experiment [5] addresses T1, Human TfR apical domain. Kind of experiment: SPR (Biacore 8K), fusion protein captured with Human Fab Capture Kit, human TfR apical domain as analyte, 1:1 kinetic fit. The method, then: The affinities of Fc polypeptide dimer-antibody variable region fusion proteins for human TfR apical domain and HER2 ECD were determined by surface plasmon resonance using a Biacore™ 8K. Fc polypeptide dimer-antibody variable region fusion proteins were captured using a Human Fab Capture Kit (GE, #28-9583-25) on Biacore™ Series S CM5 sensor chips (GE, #29149604) for measurement of human TfR apical domain binding, or using a Human Fc capture Kit (GE, #29234600) for measurement of human HER2-ECD binding (ACROBiosystems, HE2-H5225). Serial 3-fold dilutions of each antigen were injected at a flow rate of 30 μL/min. The binding of the antigens to captured Fc polypeptide dimer-antibody variable region fusion proteins was monitored for 30 to 300 seconds and then their dissociation was monitored for 30-4,200 seconds in HBS-EP+ running buffer. Binding responses were corrected by subtracting the RU from a blank flow cell. A 1:1 Languir model of simultaneous fitting of kₒₙ and koff was used for kinetics analysis.

In experiment [6] the target is HER2 on HER2-positive cancer cells (BT474, OE19, SK-BR-3) (human, UniProt P04626 23-1255). Kind of experiment: cell-based or functional assay.

T1 sequence (P02786 198-378 limits assumed): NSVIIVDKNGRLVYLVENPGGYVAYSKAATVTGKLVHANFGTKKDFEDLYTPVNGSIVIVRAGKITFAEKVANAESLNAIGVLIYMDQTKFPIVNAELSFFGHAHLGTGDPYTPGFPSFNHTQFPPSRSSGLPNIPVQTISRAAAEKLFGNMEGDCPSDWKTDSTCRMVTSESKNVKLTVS

B1: HER2_DI-35.23.4^cisLALA (bispecific antibody, human IgG1, kappa, L234A L235A)
heavy 1: QVQLQQPGAELVRPGASVKLSCKASGYSFTGYWMNWLKQRPGQGLEWIGMIHPSDSEIRANQKFRDKATLTVDKSSTTAYMQLSSPTSEDSAVYYCARGTYDGGFEYWGQGTTLTVSSASTKGPSVFPLAPSSKSTSGGTAALGCLVKDYFPEPVTVSWNSGALTSGVHTFPAVLQSSGLYSLSSVVTVPSSSLGTQTYICNVNHKPSNTKVDKKVEPKSCDKTHTCPPCPAPEAAGGPSVFLFPPKPKDTLMISRTPEVTCVVVDVSHEDPEVKFNWYVDGVEVHNAKTKPREEQYNSTYRVVSVLTVLHQDWLNGKEYKCKVSNKALPAPIEKTISKAKGQPREPQVYTLPPSRDELTKNQVSLWCLVKGFYPSDIAVEWESYGTEWSNYKTTPPVLDSDGSFFLYSKLTVSKEEWQQGFVFSCSVMHEALHNHYTQKSLSLSPGK
heavy 2: not shown
light: DIVLTQSPASLVVSLGQRATISCRASQSVSGSRFTYMHWYQQKPGQPPKLLIKYASILESGVPARFSGGGSGTDFTLNIHPVEEDDTATYYCQHSWEIPPWTFGGGTKLEIKRTVAAPSVFIFPPSDEQLKSGTASVVCLLNNFYPREAKVQWKVDNALQSGNSQESVTEQDSKDSTYSLSSTLTLSKADYEKHKVYACEVTHQGLSSPVTKSFNRGEC
notes: Fc polypeptide dimer-Fab fusion; the hole chain has no TfR site and no LALA; also called ATV:HER2-DI; ATV:-HER2-DI
With B1, the Kd in experiment [1] was 370 nM. In experiment [2], the Kd turned out to be 7.5 nM, the dissociation rate constant (koff) is 0.00105 s⁻¹ and the kon is 139000 M⁻¹ s⁻¹.

B2: anti-HER2-DI (antibody, human IgG1, kappa, V domains shown)
VH: QVQLQQPGAELVRPGASVKLSCKASGYSFTGYWMNWLKQRPGQGLEWIGMIHPSDSEIRANQKFRDKATLTVDKSSTTAYMQLSSPTSEDSAVYYCARGTYDGGFEYWGQGTTLTVSS
VL: DIVLTQSPASLVVSLGQRATISCRASQSVSGSRFTYMHWYQQKPGQPPKLLIKYASILESGVPARFSGGGSGTDFTLNIHPVEEDDTATYYCQHSWEIPPWTFGGGTKLEIKR
As for B2, in experiment [2], the Kd was 6.5 nM, the dissociation rate constant (koff) came to 0.00101 s⁻¹ and the kon came to 154000 M⁻¹ s⁻¹. Moreover, the binding result in experiment [3] is “no binding”.

B3: HER2_DII-35.23.1.1^cisLALA (bispecific antibody, human IgG1, kappa, L234A L235A)
heavy 1: EVQLVESGGGLVQPGGSLRLSCAASGFTFTDYTMDWVRQAPGKGLEWVADVNPNSGGSIYNQRFKGRFTLSVDRSKNTLYLQMNSLRAEDTAVYYCARNLGPSFYFDYWGQGTLVTVSSASTKGPSVFPLAPSSKSTSGGTAALGCLVKDYFPEPVTVSWNSGALTSGVHTFPAVLQSSGLYSLSSVVTVPSSSLGTQTYICNVNHKPSNTKVDKKVEPKSCDKTHTCPPCPAPEAAGGPSVFLFPPKPKDTLMISRTPEVTCVVVDVSHEDPEVKFNWYVDGVEVHNAKTKPREEQYNSTYRVVSVLTVLHQDWLNGKEYKCKVSNKALPAPIEKTISKAKGQPREPQVYTLPPSRDELTKNQVSLWCLVKGFYPSDIAVEWESFGTEWSNYKTTPPVLDSDGSFFLYSKLTVSKEEWQQGFVFSCSVMHEALHNHYTQKSLSLSPGK
heavy 2: not shown
light: not shown
notes: Fc polypeptide dimer-Fab fusion; the second heavy chain is a hole Fc without a TfR site; also called ATV35.23.1.1:Her2_DII huIgG1.LALA.knob
Regarding B3, the Kd in experiment [4] stood at 620 nM; in experiment [5] it was 534 nM.

B4: HER2_DII-35.23.4^cisLALA (bispecific antibody, human IgG1, kappa, L234A L235A)
heavy 1: B3 heavy 1 with F386Y
heavy 2: not shown
light: not shown
notes: also called ATV:HER2-DII; ATV:-HER2-DII
For the molecule B4, in experiment [6], the “IC50, BT474 cell viability (growth inhibition assay)” value was determined as 1.17 nM and the “IC50, OE19 cell viability (growth inhibition assay)” value is 0.725 nM. Also, in experiment [1], the Kd amounted to 450 nM. In experiment [5], this molecule gave a Kd of 445 nM.

The record behind these values is patent publication US20220002436A1 (DENALI THERAPEUTICS, published 2022).
